Laboratory results taken from US20210389324.

T1: CFP-SFVp12-YFP 19:6
T1 chain: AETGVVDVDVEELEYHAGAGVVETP

T2: CFP-SFVp12-YFP 11:6
T2 chain: DVEELEYHAGAGVVETP

T3: CFP-NT5M-YFP
T3 chain: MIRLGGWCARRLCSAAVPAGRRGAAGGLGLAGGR

T4: CFP-SFRP2-YFP
T4 chain: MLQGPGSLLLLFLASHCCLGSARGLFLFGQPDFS

T5: CFP-FOXG1-YFP
T5 chain: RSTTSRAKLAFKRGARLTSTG

T6: CFP-SFRP1-YFP
T6 chain: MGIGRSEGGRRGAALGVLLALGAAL

T7: CFP-SFRP4-YFP
T7 chain: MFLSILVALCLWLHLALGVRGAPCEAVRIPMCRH

B1: Recombinant CHIKV nsP2 protease (protein)
chain: SNAFQNKANVCWAKSLVPILETAGIKLNDRQWSQIIQAFKEDKAYSPEVALNEICTRMYGVDLDSGLFSKPLVSVYYADNHWDNRPGGKMFGFNPEAASILERKYPFTKGKWNINKQICVTTRRIEDFNPTTNIIPVNRRLPHSLVAEHRPVKGERMEWLVNKINGHHVLLVSGYNLALPTKRVTWVAPLGVRGADYTYNLELGLPATLGRYDLVVINIHTPFRIHHYQQCVDHAMKLQMLGGDSLRLLKPGGSLLIRAYGYADRTSERVICVLGRKFRSSRALKPPCVTSNTEMFFLFSNFDNGRRNFTTHVMNNQLNAAFVG
B2: Recombinant ZIKV ns2B/ns3 Protease (protein)
chain: MGSSHHHHHHSSGLVPRGSHMVDMYIERAGDITWEKDAEVTGNSPRLDVALDESGDFSLVEDDGPPMAGGGGSGGGGSGALWDVPAPKEVKKGETTDGVYRVMTRGLLGSTQVGVGVMQEGVFHTMWHVTKGSALRSGEGRLDPYWGDVKQDLVSYSGPWKLDAAWDGHSEVQLLAVPPGERARNIQTLPGIFKTKDGDIGAVALDYPAGTSGSPILDKSGRVIGLYGNGVVIKNGSYVSAITQGRR

Legend:
CFP-SFVp12-YFP 19:6 = target: T1, CFP-SFVp12-YFP 19:6
CFP-SFVp12-YFP 11:6 = target: T2, CFP-SFVp12-YFP 11:6
CFP-NT5M-YFP = target: T3, CFP-NT5M-YFP
CFP-SFRP2-YFP = target: T4, CFP-SFRP2-YFP
CFP-FOXG1-YFP = target: T5, CFP-FOXG1-YFP
CFP-SFRP1-YFP = target: T6, CFP-SFRP1-YFP
CFP-SFRP4-YFP = target: T7, CFP-SFRP4-YFP

Protein	cleavage of CFP-YFP substrate (CFP-SFVp12-YFP 19:6)	cleavage of CFP-YFP substrate (CFP-SFVp12-YFP 11:6)	cleavage of CFP-YFP substrate (CFP-NT5M-YFP)	cleavage of CFP-YFP substrate (CFP-SFRP2-YFP)	cleavage of CFP-YFP substrate (CFP-FOXG1-YFP)	cleavage of CFP-YFP substrate (CFP-SFRP1-YFP)	cleavage of CFP-YFP substrate (CFP-SFRP4-YFP)
B1	CHIKV and VEEV nsP2 cysteine protease	CHIKV and VEEV nsP2 cysteine protease					
B2			ZIKV ns2B-ns3 protease	Control, not cleaved by ZIKV ns2B-ns3 protease	ZIKV ns2B-ns3 protease	ZIKV ns2B-ns3 protease	Control, not cleaved by ZIKV ns2B-ns3 protease
